experiment: soluble fraction after stress (log2 fold change); higher = more stays soluble; pooled small domains, quantitative proteomics; details: stress: 50 degC
How it was run: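 The stress applied to every library was 50°C. These custom libraries of small protein domains were pooled and measured at high throughput with quantitative proteomics as the read-out. Aggregation propensity is expressed as the base-two logarithm of the fold change in how much of each protein remains soluble. The higher the value, the more of that protein stays in solution.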

| Sequence | soluble fraction (log2) |
| --- | --- |
| HMKIQISGSQRIDENVVVKVAGLSFPQSLLSLEPGQIESKLMQELPVQEVSVQRRLLPPGLDIQLVE | 0.0631 |
| HMEQIPEEYKKIYSLITDIPININDIAKKSLLELREVSSKLTMLELDGKVVKLPGNMYIRGDL | 0.0726 |
| HMSTIKEKIIQYLDFKGISKYDFYQKTGVSNGVLSQKSGMSEDNIMRFLSYYDDINTDWLFYGKGEMIKT | -1.13 |
| HMSSAVKRALAELPENWRMIVYYRVVEGLSYAEIAKVLDIPDGSVMSGLHRGKKMLRGLLLEYAQQEGYD | -1.72 |
| HMNMFDMRKTGARISQLRRAAGLTQAELAEKLGISYQAVSSWERGSNMPDIGKLLDLARILNTTVDALLSA | -0.375 |
| HMKSAIGEEKAENFAFADLGMDPLSAEGVRTEFGFEQGQFVYKVYFTADGTEYEYWIKASDGSVVKKGMDL | -0.891 |
| HMSNETKSAILNFAEKHHDFNIDDLFESLSKSMDINRSSLLWHLFKLVNSNVLIRTGRGMYAKV | -1.89 |
| HMTVVIKVQASQLESWKSSAGTEIKAKLIAVEDEKTYLFVTETGKTIRATAAQLDESSVSRARKLAGL | -1.03 |
| HMGREVVVPNLAGIEKEVALDLLKKNRLGGMITGTRFSSDFPAGQVIQQMPEAGSRVKVGKQVKLVLSEG | 0.323 |
| HMDVRKSISDLKALGLSDAAVTVYGTIGNKPVHIDKIVSELGIPVFKVLTALTQLEMKGLVTAMQGRMYVL | -1.01 |
| HMEVGVSGTVFNTDSLNVRKGPGTNFDTVTSLKRGSVVEVFEQSAVDGTVWGRIANGWVNMQYVSL | -0.093 |
| HMPSSQQVMRRLATVGPDKTLEELQRQHDAHLRKYGEFNDFRGERQQMRQEMERIKEAKQGTGPYAHLMG | 0.0233 |
| HMARGRETILLVEDEPAVRGLVHATLRLHGYTVLEARHGIEALLTSTKFVGPIHLLLTDVVMPQMS | 0.182 |
| HMSATPQRMSIINELDSARKNLSAYDLRDSLKDKGHSFNISTIYRVLSFWIDVGVVHKMDSSNTYL | 0.147 |
| HMDSILMPGVVNKELREALAILKNEGIGWADPEYASSTVTRNYVISTDPVEGIELAPGQKVRLVVSLGPKP | -0.00706 |
| HMVSTEDEISDKLLLDFALEKLSENEKQIVKLRYYNSLTQSKTAEILNMTQVQVSRSEKKILAKLRGII | -0.267 |
| HMPYNNLADAPASWKKLDDTPLTLGQVNWIAKIYDALVAKGMEKGAAAGTAISRFKKSFKVADGKWVQV | -0.0698 |
| HMETYSGVERAAILVMYLERTLAKALLDHMNDEEVRRVGMAMASIDRVEGPDIERIVGDFVRELYEVS | -0.793 |
| HMDNVINDGMQVRFTGNVDINGTPLKIYDRIYTAEGISDDTVVLMLGNDVYARVYLSDVVPAD | -0.405 |
| HMPGLPLWAFSTRGSAIHTGASFRDGDGLLFGPESRGLPDWLLEEVGQDRVLRLPMRPGSRSLNLSNAV | -0.304 |
| HMTHANAALTPRHRLKVARLVVDEGWPVSEVAARFQVSWPTVKRWADRYRAGQSMQDRSSRP | -1.13 |
| HMSDHSSLAGKEGVAVTPLRPAGTAEIDGKRMDVVTMGDYIKAGDHIKVVKVEGNRIIVAKN | 0.0433 |
| HMFEKVKLTLTIPSKYSGSTYSALRNRMNKFSKEEWLSNGDLKIEIEVTGGQKTDIYTLINKLTNGEAIIE | -0.141 |
| HMDEIDYSKYSITTSNRIINIDGVQSKVELFDVSGRSIQSTMVTGKFSSRPLNAGFYIIHVDGYSVKVSV | -0.889 |
| HMKNISSEEDREKALSLGITQEFIDNKGRYFITVPNKPSNFKEQALNIQKEISEQIDTVINKRFEF | -0.0173 |

| Sequence | soluble fraction (log2) |
| --- | --- |
| HMARLAGVDLPREKRIEIGLTYIYGIGLARSQEILKKAGINPDIRVKDLTDEQEQAIRNAMDGYIVEGDL | -0.148 |
| HMTFPYTSLKDAPKNMKEIDGVPLTLDQVNQIAKVADSIGVSKEKNGYAIAKSQFKKSHHIENNRWVKNK | 0.0239 |
| HMQTYNQLKRGMTEWIQAGQKQKAYELFAGVAGQLSLSSAAGKKQYNELVTILNRAGFGIPLE | -0.428 |
| HMGDEPGAGYKWREDVLLRVMSEHGIDESARDDFVRHAVKFDDDDNLYLKKAEIIAAAEAWESSS | 0.17 |
| HMSRAHTELEEKLLTMLEENDMTLPMRVISNIASRIEGIIIPEEKILEVLKKSYDRYREHQMD | 0.0257 |
| HMENITTILRSIKNEIKKNSTFVGDDFVNQARSMNQGQIKEKSIYGHGTKKEIEELRDEGVDVLNIPWIT | -0.162 |
| HMHMSLTEKYKELTDLAVSAGVQNLNVREQDGVLYVDGDASGAVKQQLWDTYGKLDPDYTSGDLVLNI | 0.0615 |
| HMEDIQPSVIFQNNMIDGFKKFGVSFLQNRRNVNVNTLNGLASAGTYPKWQQLLVNKISYIDMLLSTGG | 0.0785 |
| HMIPTTELAERLGTTKVANMIMLGALIKASGIISFDDMIKNLGELLGEGKAKLIKLNKEALEVGFN | -0.0172 |
| HMISKTFEINEDNINNRLDIFLANQFDNLSRGIVQKLIESHSVSVSGNFVEKDYKLKLGDIIDVEINLS | -0.486 |
| HMFASSADGVEGLKTNPIFASTKEKSDAGKLLYTRYLAIGIFRMLELAKATDPKALEALVEAGG | 0.0895 |
| HMRLPNGYGSITKLSGKRRKPFMVRITTGYDNEGKQLMSVLGYYATRTEALAVLAEYNKNPYNPI | -2.57 |
| HMLPIGSSREQVISSLNKMHQDYKEEGNFIYAGYFKQGLPLVPSPRISIALQFNETAHLEKIDATLNYV | -0.305 |
| HMRRTEKEIEQDVMRAIATIISEKGISSVTIKEVSNLSKTDVIVLERRFKNDEGLIKAYTSQ | -0.166 |
| HMDEYGEVQALQRAGQTSEALARADRHIAAHPNDPQMRFVKANLLSAGGRAGEAETLLVQLTRD | -0.0234 |
| HMTNISDYILEEYYKNVYPNDLNTKRIVIPNKYEEYAGKYTYITIARMVTYEHDAKKALKVLHQQAT | -0.287 |
| HMDVPNLVGEEIKDVRRTLRHFQLEVIGEGSKIVSQVPKHGQRLPENTTIRVYLN | 0.155 |
| HMAVSVPDVMGLTYEEAYNKITAEGLLVNRLESYTGLVEKGRVISQLPVGGEPAAKGSTVNVNVSL | 0.252 |
| HMKMQPVISQGVLYINNVTDVRTIEVFDISGRIVADAAASTTVNIAHLNEGPYIVKVTTVNGIESIKILNK | -0.223 |
| HMIAVIKPSATAEQKAGLVDWIRGQGIDVHISEGHDYTVLGLIGDTSKIDMDLIASLDIVDSVKRVA | -0.0298 |
| HMSASEKLFEARKNLNIVNVLGKNPVDRYDIVKILKHGDHYHIYDSKGNEGITYTNPKSLYPEAEFGEYQG | 0.12 |
| HMFTLNEIIGQKIRNARISAGLTLDELSKMTGISAAQLSSLETGYRRANIDTLYAIAKAIGIDVSNLLKY | -0.46 |
| HMPESYFEMLQKLLETYALPQEGTIYFSAADLARMPQKFEDVIEQTAQKKGGHLVVSKEPKDMDGGFVLV | -1.41 |
| HMPTAGYMTVTPDRVKEGQQFLATLRPPYVLKADGLAAGKGVLILPELEEAQRELEEMLGGFLGELSVNR | -0.0813 |
| HMVVSDSAEIDKIVQDVIAANPKAIEDFKSGKTNVTGWLMGQVMKLSHGKANPKQATEILNKYLSK | 0.354 |

| Sequence | soluble fraction (log2) |
| --- | --- |
| HMSDYYEVLGVTRQADAEEIKRAYRRKARQLHPDVAGPGHEEEFKEVTVAYEVLSDPEKRQAYDLGGQDAL | 0.179 |
| HMTYGYFELKAKNLDSLKQFLKGIAQVESIEEENNGLKVFLKNELESEELSEKLAEAKIFVSHLAKKK | 0.0782 |
| HMQKAQEYILVDIKGEVQTPGVYKLPVNSRVIDAIEASGGLTKKAVTTYINLSKTLKDENVIIINKKSEL | -0.2 |
| HMEILPAYRDIKKEALLGNINAEFKYVNLLLEHNYIEQAFNIIEDMKTRVDDNPEFEELKSRVADAYLMY | -1.38 |
| HMRTANREKRIEASVKMMKAGYPVGYIIARVFMYEGWEEDYRQLLIYLSEKIPKDVSNPITFEVIS | -0.296 |
| HMRPTDVLNYDESMRILNFSNNRVGFKHLMDAKGIEQVIFKNRKIGYRKSEILALKSELEAEQK | -0.341 |
| HMTNVVSKNKAKEIAMNIINDTVLQGQTAATFKEIVKANGVYVVKIEIQGQEYTSYITKDGKIVFPYGVEV | -0.451 |
| HMGLQLTPVRRRVLEILLHEHRALGAYDILDKLRSEGLGSQPPVAYRALDFLVTHGFAHKIERLNAF | -0.609 |
| HMKELASKYEISEYMKFLIENLDKSNFFYPIEKRESMINNIFSIYSKADLSKKELNMLWGMLKKLR | -2.1 |
| HMTLDEDYFYYTLKAKEGYYRLYKKLGVDRKIIDSLNPNLKEMGLQVGMVIRVPKSQTSDLSVKNSLLVE | -1.4 |
| HMKIQTYEDFRNAYPDIQGSLFGSAERYKTDLDWGDVAAKYDADEELKNVRNIFQLVRRYEQKYS | 0.332 |
| HMRQIRELFRLKFGSLLPTSDRQIAAQLGVARSTVAEYLERARAAGLSWPLPLDLSDADLEERLFA | -2.75 |
| HMKFLHLADLHLGKRVNGFSMLEDQAYILRQILTILDDERPDGVLIAGDVYDKPVPPTEAVELLD | -0.604 |
| HMKSATGKIPDFISDLPVDEFVRELIVTNAFQPLNKFKEVQNHIGSALKIYVDELTEKRANGTVHILYSHK | 0.077 |
| HMKTLGMDKGVNIALNDAGLRAEDVSNLSAHYDTEDGVPVYEIKFTAGGFSYEYQIKASDGTIIEADRDAA | -0.108 |
| HMAMKFQDIVRQKRKELGLTQEQAARRLGVSPAAVSKWESGQSLPDTPLFAPLARLLHTDLNTLLSFE | -0.732 |
| HMPVLDETVPAALDGERIDRVVALLADVSRNRAGIAIAAGSVRLDGAVVTQRSRKVRADEELVVDGLER | -0.015 |
| HMQWLDSIRSRLRVGQTISYFEPRENASSSGLIIELRRKRVLVLEIATQKRWLIEYAAINVDG | -0.373 |
| HMSSTSTMTVAEATIGRKVKHDKFGEGTIITVADVNGDKKLTIAFNQQGVKMLMLSMAKLEL | -1.03 |
| HMSLPNNLIEQLQDPEPKARRRAVRRLAATRDPSAIPLLRNVYLQDGDDRVRDAAEAALVQFRAMQHN | 0.0586 |
| HMDRRDEYHQHLLRLLLSGEIRDKDELQRRKVKLSGEYGLAGVPKNSETLALVPPDRLPEVLDILR | 0.065 |
| HMLAAGTSLTVDTESSNLNIRQEPSTEGVILGKAAKGEVVTLVEQSSDEWWKIKTKDGEEGYAYARYLR | 0.203 |
| HMSGQLTEEQVKQIVTTAVKNSSGSTLTAAEVSRIVSTAVANNLTADQVKTVVNNALAGITTDISTLKA | 0.0898 |
| HMGLQRLTVSPEDAGVRIDKYLAEQLPDITRSYLQKLLKDGSVQMNGKPVKASTKTAVGAVIALTIPEP | 0.0689 |
| HMNSEERVLDTASKWLVKLDEGLDESEAQVLKVWLATPLHRDTFLEMVALWDKMSVLNELADIV | -1.78 |

From the domain aggregation screens of Martell et al. (2025)
